According to PMC5127644, “SPRTN is a mammalian DNA-binding metalloprotease that resolves DNA-protein crosslinks”:

T1: SPRTN full length (Homo sapiens, UniProt Q9H040 1-489)
T1 sequence: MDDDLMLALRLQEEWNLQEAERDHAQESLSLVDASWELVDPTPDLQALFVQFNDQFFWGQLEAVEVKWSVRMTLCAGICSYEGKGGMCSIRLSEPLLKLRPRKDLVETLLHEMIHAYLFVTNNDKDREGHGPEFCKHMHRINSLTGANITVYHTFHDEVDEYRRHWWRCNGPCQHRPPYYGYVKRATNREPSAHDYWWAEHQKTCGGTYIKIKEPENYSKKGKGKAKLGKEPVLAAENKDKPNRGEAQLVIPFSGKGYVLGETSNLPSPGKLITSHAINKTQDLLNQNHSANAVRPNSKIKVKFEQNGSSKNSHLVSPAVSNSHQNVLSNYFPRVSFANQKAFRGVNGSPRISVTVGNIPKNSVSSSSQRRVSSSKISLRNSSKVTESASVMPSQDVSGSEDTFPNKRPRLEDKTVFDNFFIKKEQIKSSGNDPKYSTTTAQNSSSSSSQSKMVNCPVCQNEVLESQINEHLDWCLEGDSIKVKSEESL

T2: SPRTN-∆C (a.a. 1-216) (Homo sapiens, UniProt Q9H040 1-216)
T2 sequence: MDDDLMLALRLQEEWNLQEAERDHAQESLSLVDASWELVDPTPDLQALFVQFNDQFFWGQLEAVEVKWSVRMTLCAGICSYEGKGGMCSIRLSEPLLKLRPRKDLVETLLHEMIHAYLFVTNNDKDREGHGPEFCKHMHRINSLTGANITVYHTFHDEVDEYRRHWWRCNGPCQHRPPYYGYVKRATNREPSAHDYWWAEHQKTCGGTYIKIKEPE


How the values were obtained:
[1] = molecular target: T1, SPRTN full length; test: EMSA; 5 uM ZnSO4; EMSA: 10 mM Tris-HCl pH 7.5, 0.2 mM DTT, 5 uM ZnSO4, 0.25 uM DNA, 30 uL, 30 min at 20 C, 1.5% agarose gel; conditions: protein: recombinant, tags: Z-basic-His tag, TEV-cleaved (E. coli, pNIC-ZB)
[2] = molecular target: T2, SPRTN-∆C (a.a. 1-216); test: as above; conditions: protein: recombinant, tags: His tag (pNIC28-Bsa4), TEV-cleaved (E. coli)
[3] = label: 6-FAM (5' as drawn), single strand
[4] = label: 6-FAM on strand 1, blunt

Binder	binding result [1, 3]	binding result [2, 3]	binding result [1, 4]	binding result [2, 4]
GCGCGCCCATTGATACTAAATTCAAGGATGACTTATTTC (ssDNA) [6-FAM-ssODN 39-mer]	binds	no binding		
6-FAM-dsODN 39-mer (dsDNA) DNA 1: GCGCGCCCATTGATACTAAATTCAAGGATGACTTATTTC DNA 2: GAAATAAGTCATCCTTGAATTTAGTATCAATGGGCGCGC			binds	no binding
